Target: T1, His-SlmA/SBS (E. coli), P0C093
T1 chain: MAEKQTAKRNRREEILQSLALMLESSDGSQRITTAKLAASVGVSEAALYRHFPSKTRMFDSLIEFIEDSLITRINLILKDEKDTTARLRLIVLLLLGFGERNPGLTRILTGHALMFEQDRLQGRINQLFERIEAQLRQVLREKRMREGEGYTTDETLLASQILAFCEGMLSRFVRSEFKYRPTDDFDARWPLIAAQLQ
Assay: BLI
Details: remark: other sources report otherwise

B1: FtsZ-360, P0A9A6 1-360 (domain or fragment)
chain: MFEPMELTNDAVIKVIGVGGGGGNAVEHMVRERIEGVEFFAVNTDAQALRKTAVGQTIQIGSGITKGLGAGANPEVGRNAADEDRDALRAALEGADMVFIAAGMGGGTGTGAAPVVAEVAKDLGILTVAVVTKPFNFEGKKRMAFAEQGITELSKHVDSLITIPNDKLLKVLGRGISLLDAFGAANDVLKGAVQGIAELITRPGLMNVDFADVRTVMSEMGYAMMGSGVASGEDRAEEAAEMAISSPLLEDIDLSGARGVLVNITAGFDLRLDEFETVGNTIRAFASDNATVVIGTSLDPDMNDELRVTVVATGIGMDKRPEITLVTNKQVQQPVMDRYQQHGMAPLTQEQKPVAKVVND
Kd: 82 µM

— publication PMC4364296
